In patent US8197839B2, “Sustained release delivery system” (Virbac Corporation, priority 2001, dated 2012):

B1: PST Injection A: daily injection of porcine somatotropin, 5 mg/day, comparator (source A) (protein, UniProt P01248 27-216, looked up)
Somatotropin: FPAMPLSSLFANAVLRAQHLHQLAADTYKEFERAYIPEGQRYSIQNAQAAFCFSETIPAPTGKDEAQQRSDVELLRFSLLLIQSWLGPVQFLSRVFTNSLVFGTSDRVYEKLKDLEEGIQALMRELEDGSPRAGQILKQTYDKFDTNLRSDDALLKNYGLLSCFKKDLHKAETYLRVMKCRRFVESSCAF
B2: PST Injection M: daily injection of porcine somatotropin, 5 mg/day, comparator (source M) (protein, UniProt P01248 27-216, looked up)
Somatotropin: B1 Somatotropin

Experiment: Feed conversion efficiency in pigs after sub-cutaneous implantation of rPST compressed tablets, 0-7 days
Format: in vivo
Conditions: 0-7 days (Table 6)
From the text: A number of the compressed tablets were implanted via sub-cutaneous injection in pigs.

| Molecule | FCR | Feed intake [kgs] | Weight increase [kgs] |
| --- | --- | --- | --- |
| B1 | 1.97 | 16.33 | 8.30 |
| B2 | 1.78 | 16.78 | 9.43 |
